Test results reported in article PMC3972757.

How the values were obtained:
[1] = molecular target: catalytic domain of AMSH, AMSH 219-424 E280A (human) (UniProt O95630); experiment: AUC
[2] = molecular target: catalytic domain of AMSH, AMSH 219-424 E280A (human) (UniProt O95630); experiment: ITC
ubiquitin (Homo sapiens) = ubiquitin (Homo sapiens) (UniProt P0CG48); experiment: biosensor; conditions: cited from earlier work

catalytic domain of AMSH, AMSH 219-424 E280A (human), sequence (O95630 219-424 E280A): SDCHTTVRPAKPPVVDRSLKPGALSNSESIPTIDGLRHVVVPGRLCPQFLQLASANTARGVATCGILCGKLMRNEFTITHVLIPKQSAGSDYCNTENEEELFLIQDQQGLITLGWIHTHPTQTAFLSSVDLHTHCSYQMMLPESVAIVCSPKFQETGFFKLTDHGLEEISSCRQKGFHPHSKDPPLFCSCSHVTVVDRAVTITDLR
STAM UIM, sequence (Q92783 168-193): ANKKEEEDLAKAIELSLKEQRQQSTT

Substance | stoichiometry N [1] | Kd [2] [µM] | dH [2] [kcal/mol] | Kd (ubiquitin (Homo sapiens)) [µM]
SH3 domain of STAM2 (from UniProt O75886 202-261) (domain or fragment) | 1 | 1.4 | -15.1 | 
STAM UIM (from UniProt Q92783) |  |  |  | 182
